For assay [1], the target named is T1, SCaMC-1 transmembrane domain (TMD), residues 185-477, incorporated in POPC/POPG/cardiolipin liposomes (human, UniProt Q6NUK1 185-477).
T1 sequence (looked up): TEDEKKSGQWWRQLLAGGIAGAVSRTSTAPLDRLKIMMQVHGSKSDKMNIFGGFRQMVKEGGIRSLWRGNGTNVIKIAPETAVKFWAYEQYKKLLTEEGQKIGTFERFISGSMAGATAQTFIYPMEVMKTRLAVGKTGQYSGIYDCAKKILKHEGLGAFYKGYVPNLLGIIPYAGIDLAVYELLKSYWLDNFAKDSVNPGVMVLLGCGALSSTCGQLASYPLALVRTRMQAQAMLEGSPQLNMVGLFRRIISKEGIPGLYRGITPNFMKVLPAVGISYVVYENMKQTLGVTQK
The assay is described as follows: SPR. In general terms: Surface plasmon resonance follows binding to a sensor surface in real time, without labels.

In assay [2] the target is T1, SCaMC-1 transmembrane domain (TMD), …. The assay is described as follows: SPR. The source holds these as a separate data set.

Where two headings read alike, the source gives them in different places.

B1: Human SCaMC-1 N-terminal domain (NTD), residues 1-193 (domain or fragment, UniProt Q6NUK1 1-193, looked up)
chain: MLRWLRDFVLPTAACQDAEQPTRYETLFQALDRNGDGVVDIGELQEGLRNLGIPLGQDAEEKIFTTGDVNKDGKLDFEEFMKYLKDHEKKMKLAFKSLDKNNDGKIEASEIVQSLQTLGLTISEQQAELILQSIDVDGTMTVDWNEWRDYFLFNPVTDIEEIIRFWKHSTGIDIGDSLTIPDEFTEDEKKSGQ
Regarding B1, the results for the Kd in assay [1] and in assay [2] were 0.25 mM and 5.6 mM, respectively.

The record behind these values is article PMC3946054 (Structure (London, England : 1993), 2013).
